These results are taken from publication doi:10.1101/2021.03.30.437644.

The target in one series is T1, SLIM1 (Arabidopsis thaliana (Col-0), UniProt O23116 1-567).
T1 sequence: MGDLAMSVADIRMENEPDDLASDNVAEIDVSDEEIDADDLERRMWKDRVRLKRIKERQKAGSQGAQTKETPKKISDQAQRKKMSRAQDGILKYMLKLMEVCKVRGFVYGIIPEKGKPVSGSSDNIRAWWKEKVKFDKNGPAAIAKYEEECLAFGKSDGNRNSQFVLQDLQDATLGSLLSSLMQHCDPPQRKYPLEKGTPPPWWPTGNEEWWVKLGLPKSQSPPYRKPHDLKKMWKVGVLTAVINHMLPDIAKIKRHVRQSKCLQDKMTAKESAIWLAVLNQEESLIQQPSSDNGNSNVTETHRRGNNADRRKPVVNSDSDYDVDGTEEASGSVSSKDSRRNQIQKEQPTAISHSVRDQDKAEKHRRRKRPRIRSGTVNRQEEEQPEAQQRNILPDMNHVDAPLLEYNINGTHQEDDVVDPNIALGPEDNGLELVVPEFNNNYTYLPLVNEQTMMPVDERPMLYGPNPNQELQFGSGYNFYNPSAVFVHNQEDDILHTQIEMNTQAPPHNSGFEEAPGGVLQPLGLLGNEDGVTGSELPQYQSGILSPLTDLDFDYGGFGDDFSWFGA
Nature of the series: EMSA. For orientation: In EMSA bound probe runs differently from free probe, usually more slowly.

The next series deals with T2, GBF1 (bZIP41) (Arabidopsis thaliana (Col-0), UniProt P42774 1-315).
T2 sequence: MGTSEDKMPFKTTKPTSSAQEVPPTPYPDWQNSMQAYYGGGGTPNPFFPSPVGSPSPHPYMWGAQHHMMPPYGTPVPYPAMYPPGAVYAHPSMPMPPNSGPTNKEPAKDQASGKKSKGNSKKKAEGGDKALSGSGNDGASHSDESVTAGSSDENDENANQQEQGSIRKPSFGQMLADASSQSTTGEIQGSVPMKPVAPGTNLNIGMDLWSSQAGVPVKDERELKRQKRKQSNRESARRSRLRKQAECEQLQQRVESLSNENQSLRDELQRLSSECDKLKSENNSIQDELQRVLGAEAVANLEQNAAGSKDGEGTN
Nature of the series: EMSA.

Series [1] has as its target T3, bZIP44 (Arabidopsis thaliana (Col-0), UniProt C0Z2L5 1-173). Nature of the series: EMSA.
Series [2] concerns the target T4, HYH (bZIP64) (Arabidopsis thaliana (Col-0), UniProt Q8W191 1-149).
T4 sequence: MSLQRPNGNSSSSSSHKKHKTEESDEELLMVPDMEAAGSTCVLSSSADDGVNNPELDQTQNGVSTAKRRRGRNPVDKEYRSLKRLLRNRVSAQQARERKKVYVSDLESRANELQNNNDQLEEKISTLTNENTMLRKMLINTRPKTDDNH
In words: EMSA.

In series [3] the target is T5, bZIP16 (Arabidopsis thaliana (Col-0), UniProt Q501B2 1-409).
T5 sequence: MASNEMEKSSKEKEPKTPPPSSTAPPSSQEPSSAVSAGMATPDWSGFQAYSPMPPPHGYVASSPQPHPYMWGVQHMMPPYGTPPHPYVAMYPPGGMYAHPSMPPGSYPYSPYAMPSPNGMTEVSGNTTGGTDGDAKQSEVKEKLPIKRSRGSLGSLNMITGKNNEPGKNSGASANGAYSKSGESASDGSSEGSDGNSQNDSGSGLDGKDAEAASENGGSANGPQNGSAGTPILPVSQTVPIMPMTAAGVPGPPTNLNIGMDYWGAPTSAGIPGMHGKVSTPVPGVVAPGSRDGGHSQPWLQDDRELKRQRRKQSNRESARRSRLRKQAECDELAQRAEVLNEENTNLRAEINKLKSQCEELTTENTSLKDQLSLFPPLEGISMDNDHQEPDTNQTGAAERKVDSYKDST
In words: EMSA.

Series [4] addresses T3, bZIP44. Nature of the series: competition EMSA.
In series [5] the target is T4, HYH (bZIP64). Nature of the series: competition EMSA.
Series [6] has as its target T5, bZIP16. Nature of the series: competition EMSA.

T3 sequence (C0Z2L5 whole entry): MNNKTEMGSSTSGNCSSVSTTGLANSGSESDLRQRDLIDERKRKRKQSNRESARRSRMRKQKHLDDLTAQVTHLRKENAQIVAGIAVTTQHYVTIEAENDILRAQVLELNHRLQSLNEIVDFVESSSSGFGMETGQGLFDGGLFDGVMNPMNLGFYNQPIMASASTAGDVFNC

B1: Probe 1 (proxSDI1) (dsDNA)
DNA 1: GTGGTAAGAAGTCTCCAAGTGACGTGGCAGCTTCTATGAACAGAGACGAA
DNA 2: TTCGTCTCTGTTCATAGAAGCTGCCACGTCACTTGGAGACTTCTTACCAC
Consider B1, for which the binding result with SLIM1 is “binds”.

B2: Probe 3 (proxSDI2) (dsDNA)
DNA 1: GACCAGCCCGCGGTATTTTAGATCCAGTTGACGATAATGAACCAAGACGA
DNA 2: TCGTCTTGGTTCATTATCGTCAACTGGATCTAAAATACCGCGGGCTGGTC
On to B2, for which, in the series with GBF1 (bZIP41), the binding result is reported as “binds”.

B3: Probe 4 (proxSDI2) (dsDNA)
DNA 1: GACGGATAGGGTACGTGGCACTATTTTATA
DNA 2: TATAAAATAGTGCCACGTACCCTATCCGTC
With B3, the binding result with bZIP44 [1], in the series with HYH (bZIP64) [2] and in the series with bZIP16 [3] was “binds” in each case.

B4: Probe 2 (proxSDI2) (dsDNA)
DNA 1: GAGAGATAAAGAAGGTTTCTTCATTTAGAAACAGAGACACGAAGTTTGCG
DNA 2: CGCAAACTTCGTGTCTCTGTTTCTAAATGAAGAAACCTTCTTTATCTCTC
B4: the binding result with SLIM1 is “binds”.

B5: Mutated probe 4 (dsDNA)
DNA 1: GACGGATAGGGTAAAAGGCACTATTTTATA
DNA 2: TATAAAATAGTGCCTTTTACCCTATCCGTC
On to B5, for which the binding result in the series with bZIP44 [4], with HYH (bZIP64) [5] and in the series with bZIP16 [6] was “no binding” throughout.
